Test results from PMC4981545 (Cell reports, 2016).

How the values were obtained:
Assay in all cases: pull-down
[1] = target: GST-tagged HPV-11 E2 (11E2), immobilized (HPV-11, UniProt P04015 1-367)
[2] = target: GST-tagged HPV-18 E2 (18E2), immobilized (HPV-18, UniProt P06790 1-365)
[3] = target: GST-tagged HPV-16 E2 (16E2), immobilized (HPV-16, UniProt P03120 1-365)
[4] = target: T1, GST-tagged BPV-1 E2 (BE2), immobilized (bovine papillomavirus type 1 (BPV-1), UniProt P03122 1-410)
T1 sequence: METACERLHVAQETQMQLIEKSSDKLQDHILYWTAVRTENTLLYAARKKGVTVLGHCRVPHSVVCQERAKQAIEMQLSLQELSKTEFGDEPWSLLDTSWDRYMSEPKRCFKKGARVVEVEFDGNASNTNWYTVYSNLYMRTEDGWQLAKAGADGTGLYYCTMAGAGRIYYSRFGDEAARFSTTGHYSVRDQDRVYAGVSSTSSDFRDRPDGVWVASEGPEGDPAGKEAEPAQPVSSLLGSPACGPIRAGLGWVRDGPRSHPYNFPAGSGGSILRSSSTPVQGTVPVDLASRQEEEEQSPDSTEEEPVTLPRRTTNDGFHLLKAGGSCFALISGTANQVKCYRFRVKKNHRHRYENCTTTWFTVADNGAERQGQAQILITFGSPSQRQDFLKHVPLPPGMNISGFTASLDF

[5] = target: Sf9-PDID of BRD4 with S492 substituted to alanine (human, UniProt O60885 287-530, S492 to alanine)
[6] = target: Sf9-PDID of BRD4 with S499 substituted to alanine (human, UniProt O60885 287-530, S499 to alanine)
[7] = target: Sf9-PDID of BRD4 with S488 substituted to alanine (human, UniProt O60885 287-530, S488 to alanine)
[8] = target: Sf9-PDID of BRD4 with S494 substituted to alanine (human, UniProt O60885 287-530, S494 to alanine)
[9] = target: Sf9-PDID of BRD4 with S498 substituted to alanine (human, UniProt O60885 287-530, S498 to alanine)

Measured: binding result

GST-tagged HPV-18 E2 (18E2), immobilized, sequence (P06790 whole entry): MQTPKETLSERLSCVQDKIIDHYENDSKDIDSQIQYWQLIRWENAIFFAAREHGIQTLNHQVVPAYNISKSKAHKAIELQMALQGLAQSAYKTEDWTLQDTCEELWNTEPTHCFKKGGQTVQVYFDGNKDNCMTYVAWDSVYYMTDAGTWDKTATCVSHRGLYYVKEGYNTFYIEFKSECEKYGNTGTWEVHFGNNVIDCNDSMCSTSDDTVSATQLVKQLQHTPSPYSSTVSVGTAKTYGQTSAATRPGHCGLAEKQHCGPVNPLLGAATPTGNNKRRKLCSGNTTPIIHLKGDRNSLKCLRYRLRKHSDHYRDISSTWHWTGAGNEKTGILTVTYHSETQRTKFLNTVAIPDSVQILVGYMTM
GST-tagged HPV-16 E2 (16E2), immobilized, sequence (P03120 whole entry): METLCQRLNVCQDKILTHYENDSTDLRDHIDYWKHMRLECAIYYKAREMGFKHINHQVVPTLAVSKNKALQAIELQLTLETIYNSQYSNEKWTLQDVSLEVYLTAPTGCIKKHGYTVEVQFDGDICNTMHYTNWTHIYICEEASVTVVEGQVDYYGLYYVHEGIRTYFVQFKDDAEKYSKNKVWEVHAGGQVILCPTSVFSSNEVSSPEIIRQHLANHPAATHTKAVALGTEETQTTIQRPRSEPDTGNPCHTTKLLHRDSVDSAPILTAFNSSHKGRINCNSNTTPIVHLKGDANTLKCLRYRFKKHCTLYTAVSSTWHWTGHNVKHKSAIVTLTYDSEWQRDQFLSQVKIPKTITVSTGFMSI
GST-tagged HPV-11 E2 (11E2), immobilized, sequence (P04015 whole entry): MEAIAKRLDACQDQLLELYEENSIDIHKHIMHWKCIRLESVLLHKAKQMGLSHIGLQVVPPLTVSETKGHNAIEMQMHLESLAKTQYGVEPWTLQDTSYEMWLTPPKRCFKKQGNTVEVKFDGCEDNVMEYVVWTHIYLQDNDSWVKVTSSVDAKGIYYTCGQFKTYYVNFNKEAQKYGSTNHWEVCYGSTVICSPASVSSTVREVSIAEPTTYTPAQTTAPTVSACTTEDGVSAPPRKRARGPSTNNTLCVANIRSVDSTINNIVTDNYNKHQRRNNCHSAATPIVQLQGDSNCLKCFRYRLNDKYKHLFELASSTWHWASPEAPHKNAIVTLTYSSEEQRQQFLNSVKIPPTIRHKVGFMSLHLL

B1: Sf9-BID of BRD4 (fragment 6) (domain or fragment, human, UniProt O60885 524-579, looked up)
chain: QLAALSQPQQNKPKKKEKDKKEKKKEKHKRKEEVEENKKSKAKEPPPKKTKKNNSS
binds: [1] | [2] | [3] | [4]

B2: Bac-expressed FLAG-tagged BID of BRD4 (aa 524–579, fragment c) (domain or fragment, human, UniProt O60885 524-579, looked up)
chain: B1 chain
binds: [1] | [2] | [3] | [4]

B3: GST-BID of BRD4 (domain or fragment, human, UniProt O60885 524-579, looked up)
chain: B1 chain
binds: [5] | [6] | [7] | [8] | [9]
